B1: MAb 2BB6 (antibody, V domains shown)
VH: EVQLEESGPDLVKPSQSLSLTCTVTGFSITSGYSWHWIRQFPGNKLEWMGYIHFSGSTNYNPSLKSRISITRDTSKNQFFLQLSSVTTDDTGTYYCARDLTGIDSWGQGTTLTVSS
VL: DIVMTQTPAIMSASPGEKVTISCSASSSVSYMYWFQQKPGSSPKPWIYRTSNLASGVPARFSGSGSGTSYSVTISSMEAEDAATYYCQQYHSYPLTFGAGTKLELK
B2: MAb 2BB7 (antibody, V domains shown)
VH: EVQLQQSGPDLVKPGASMKISCKASGYSFTAYTMNWVKQSHGKNLEWIGLISPYNGGTSYNQKFKGKATLTVDKSSSTAYMELLSLTSEDSAVYYCARQIGPYFDHWGQGTTLTVSS
VL: IVMTQTTPSSMYASLGERVTITCKASQDIKSSFSWFQQKPGKSPKTLIYRASRLVDGVPSRFSGSGSGQDSSLTISSLEYEDMGIYYCLQCDEFPYTFGGGTKLEIK
B3: MAb 2BB8 (antibody, V domains shown)
VH: QAYLQQSGAELVRSGASLKMSCKASGYTFTSYNLHWVKQTPGQGLEWIGYIFPGNGGTAYNEKFKGKATLTADTSSSTAYMQISSLTSEDSAVYFCARGGPYYALDYWGQGTSVTVSS
VL: DIQMTQSPASLSASVGETVTITCRTSGNIHTYLAWYQHKQGKSPQLLVYYAKTLADGVPSRFSGSGSGTQYSLKINSLQPEDFGSYYCQHFWSNPRTFGGGTKLEIK
B4: MAb 2BA2 (antibody, V domains shown)
VH: VQLQESGPGLVKPSQPLSLTCSVTGYSITSAYYWNWIRQFPGNKLEWMGYITYDGTNNYNPSLKNRISITRDTSKNQFFLKLNSVTTEDTASYYCARDVATVGAMDYWGQGTSVTVSS
VL: SIVMTQTPKFLLVSAGDRVTITCKASQSVSNDVAWYQQKPGQSPKLLIYFASNRYTGVPDRFTGSGYGTDFTFTISTVLAEDLALYFCQQDYSSPRTFGGGTKLEVK
B5: MAb 2AG9 (antibody, V domains shown)
VH: ELARPGASVKLSCKASGYTFTNYYMQWIKQRPGQGLEWIGAVYPGDGDTRYTQKFKGKASLTADKSSTTAYMQLSSLASEDSAVYYCTRGDYEGTWFTYWGQGTLVTVSA
VL: DIVMTQTTAIMSASPGEKVTMTCSASSSVSYMHWYQQKSGTSPKRWMYDTSKLASGVPGRFSGSGSGTTYSLTISTMEAEDAATYYCQQWSSNPPTFGGGTKLEIK
B6: MAb 2AF11 (antibody, V domains shown)
VH: QVTLKESGPGILQPSQTLSLTCSFSGFSLSTSGMSVGWIRQPSGKGLEWLAHIWWNDDMYYNPALESRLTISKDTSNNQVFLKIASVVTADTATYYCARIALTGPYWYFDVWGAGTTVTVSS
VL: DIVMTQTPASLSASVGETVTITCRASENIYSYLAWYQQKQGKSPQLLVNNAKTLAEGVPSRFSGSGSGTQFSLKINSLQPEDCGNYYCQHHYGTPLTFGAGTKLELK
B7: MAb 2AG8 (antibody, V domains shown)
VH: VKLEESGAELVRSGASLKMSCKASGYTFTSYNLHWVKQTPGQGLEWIGYIFPGNGGTAYNEKFKGKATLTADTSSSTAYMQISSLTSEDSAVYFCARGGPYYALDYWGQGTSVTVSS
VL: DIVMTQSPASLSASVGETVTITCRTSGNIHTYLAWYQHKQGKSPQLLVYYAKTLADGVPSRFSGSGSGTQYSLKINSLQPEDFGSYYCQHFWSNPRTFGGGTKLEIKR
B8: MAb 2BB5 (antibody, V domains shown)
VH: EVQLEESGGGLVQPGGSMKLSCVASGFTFSNYWMNWVRQSPEKGLEWVAEVRLNSNNYATHYAESVKGRFTISRDDSKSSVYLQMSNLRSEDTGIYYCSTDYYGYAMDYWGQGTSVTVSS
VL: DIVMTQTPSIMSASPGEKVTITCSASSNVNYMHWFQQKPGTSPKLWIYSTSNLASGVPARFSGSGSGTSYSLTISRMEAEDAATYYCQQRSNYPPTFGAGTKLELK

Legend:
[1] = molecular target: Heartland virus (HRTV) nucleocapsid (N) protein (Heartland virus (HRTV))
[2] = molecular target: Heartland virus (HRTV) nucleocapsid (N) protein (Heartland virus (HRTV)); assay: ELISA, purified HRTV coated on the plate, MAb titrated
[3] = molecular target: SFTSV antigen (SFTSV-infected Vero cells); assay: IFA on acetone-fixed SFTSV-infected Vero cells, MAb in doubling dilutions

| Binder | ELISA endpoint [1] | ELISA endpoint titer [2] | IFA endpoint titer [3] |
| --- | --- | --- | --- |
| B1 | 10000 ng/mL | – | – |
| B2 | 24.4 ng/mL | 24.4 ng/mL | – |
| B3 | 0.61 ng/mL | 0.61 ng/mL | – |
| B4 | 39.1 ng/mL | 39.1 ng/mL | – |
| B5 | 1.53 ng/mL | 1.53 ng/mL | – |
| B6 | 10000 ng/mL | – | 1 µg/mL |
| B7 | 0.381 ng/mL | 0.381 ng/mL | – |
| B8 | 0.156 ng/mL | 0.156 ng/mL | – |

From patent US20180244757A1
